Measured values: paper PMC12751054, “Investigating the conformational landscape of human histidine-rich glycoprotein using amide HDX-MS” (Biochemical Journal, 2025)
One block for each molecule: values may come before it.

Legend:
[1] = molecular target: Histidine-rich glycoprotein (HRG), enzymatically deglycosylated, purified from human pooled plasma (human) (UniProt P04196); test: mass photometry; HRG at 50 nM in 50 mM Tris-HCl, 140 mM NaCl, 2 mM EDTA, pH 7.4; TwoMP (Refeyn); monomer and dimer
[2] = molecular target: Histidine-rich glycoprotein (HRG), enzymatically deglycosylated, purified from human pooled plasma (human) (UniProt P04196); test: mass photometry; HRG at 200 nM in 50 mM Tris-HCl, 140 mM NaCl, 2 mM EDTA, pH 7.4; TwoMP (Refeyn); monomer and dimer
[3] = molecular target: the molecule itself; test: mass photometry; HRG at 50 nM in 50 mM Tris-HCl, 140 mM NaCl, 2 mM EDTA, pH 7.4; TwoMP (Refeyn); monomer and dimer

stoichiometry N [1]: 2
stoichiometry N [2]: 2
Molecule: Histidine-rich glycoprotein (HRG), enzymatically deglycosylated, purified from human pooled plasma (from UniProt P04196 19-525) (natural protein)

B1: Histidine-rich glycoprotein (HRG), native (fully glycosylated), purified from human pooled plasma (natural protein, UniProt P04196 19-525, looked up)
chain: VSPTDCSAVEPEAEKALDLINKRRRDGYLFQLLRIADAHLDRVENTTVYYLVLDVQESDCSVLSRKYWNDCEPPDSRRPSEIVIGQCKVIATRHSHESQDLRVIDFNCTTSSVSSALANTKDSPVLIDFFEDTERYRKQANKALEKYKEENDDFASFRVDRIERVARVRGGEGTGYFVDFSVRNCPRHHFPRHPNVFGFCRADLFYDVEALDLESPKNLVINCEVFDPQEHENINGVPPHLGHPFHWGGHERSSTTKPPFKPHGSRDHHHPHKPHEHGPPPPPDERDHSHGPPLPQGPPPLLPMSCSSCQHATFGTNGAQRHSHNNNSSDLHPHKHHSHEQHPHGHHPHAHHPHEHDTHRQHPHGHHPHGHHPHGHHPHGHHPHGHHPHCHDFQDYGPCDPPPHNQGHCCHGHGPPPGHLRRRGPGKGPRPFHCRQIGSVYRLPPLRKGEVLPLPEANFPSFPLPHHKHPLKPDNQPFPQSVSESCPGKFKSGFPQVSMFFTHTFPK
modifications: N-linked glycans at Asn63, Asn125, Asn202 and Asn344; O-linked glycans at Thr273 and Thr274
notes: Histidine-rich glycoprotein, human, UniProt P04196; printed residue numbers run to 525; Pooled plasma; also called native HRG; plasma-derived human HRG
stoichiometry N [3]: 2
